Experiments:
[1] = biological target: T1, His-hAurora-A-CD (Aurora-A catalytic domain, 122-403aa) (human, UniProt O14965 122-403); experiment: pull-down; 5 μg His-hAurora-A-CD with 5 μg GST-BuGZ-N or GST on glutathione-agarose, 200 μL 0.1% PBST (Triton X-100), 4°C, 2 h; Western blot and Coomassie; details: both partners purified
T1 construct: Cloned into pET-28a at the BamHI site; also called His-Aurora-A-CD; hAurora-CD; source: E. coli Rosetta (DE3), purified
T1 sequence (looked up): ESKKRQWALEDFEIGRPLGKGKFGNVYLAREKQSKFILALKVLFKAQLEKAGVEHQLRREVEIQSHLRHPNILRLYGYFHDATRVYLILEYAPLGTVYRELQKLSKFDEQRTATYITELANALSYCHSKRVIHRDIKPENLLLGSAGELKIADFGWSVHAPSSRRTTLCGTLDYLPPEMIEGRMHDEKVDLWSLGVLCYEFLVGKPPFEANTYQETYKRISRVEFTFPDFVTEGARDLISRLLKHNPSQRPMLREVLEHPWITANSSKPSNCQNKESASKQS

[2] = biological target: T2, Aurora-A catalytic domain (CD, 128-403aa), unlabelled, as used in the NMR titration (human, UniProt O14965 128-403); experiment: NMR titration; 1H-15N HSQC of labelled Aurora-A IDR (0.1 mM) without and with unlabelled catalytic domain, 1:2 IDR:CD molar ratio; 278 K; 20 mM NaH2PO4, 50 mM NaCl, 2 mM EDTA, 1 mM DTT, pH 6.4; details: both partners purified
T2 construct: also called Aurora-A CD; AuroraA Kinase; source: purified
T2 sequence (looked up): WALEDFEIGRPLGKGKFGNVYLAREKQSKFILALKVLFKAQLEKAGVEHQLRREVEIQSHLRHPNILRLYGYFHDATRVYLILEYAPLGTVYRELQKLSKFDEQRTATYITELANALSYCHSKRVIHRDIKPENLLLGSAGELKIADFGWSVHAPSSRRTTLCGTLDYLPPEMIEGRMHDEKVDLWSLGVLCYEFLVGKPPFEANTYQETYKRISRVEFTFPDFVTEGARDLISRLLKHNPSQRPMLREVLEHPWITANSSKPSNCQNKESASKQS

B1: GST-BuGZ-N (hBuGZ N-terminus, 1-92aa) (domain or fragment)
chain: not shown
notes: BuGZ (ZNF207), human, N-terminus with the zinc fingers, residues 1-92; Cloned into pGEX-6P-1 at the EcoRI site; also called GST-BuGZ-N-terminus; source: E. coli Rosetta (DE3), purified
B1: binds [1].

B2: Aurora-A IDR (intrinsic disordered region, 1-127aa) (domain or fragment, human, UniProt O14965 1-127, looked up)
chain: MDRSKENCISGPVKATAPVGGPKRVLVTQQFPCQNPLPVNSGQAQRVLCPSNSSQRIPLQAQKLVSSHKPVQNQKQKQLQATSVPHPVSRPLNNTQKSKQPLPSAPENNPEEELASKQKNEESKKRQ
notes: Aurora-A (Aurora kinase A), human, N-terminal intrinsic disordered region; 1-127aa in the NMR text and legend, 1-126aa in the constructs section; The methods list the construct pET-28a-hAurora-IDR as 1-126aa; the NMR results and legend say 1-127aa; Uniformly isotope-labelled for NMR; also called hAurora-IDR; source: E. coli BL21(DE3), isotope-labelled (15N, 13C), purified, His tag removed by TEV …
B2: binds [2].

— PMC11090908, “Aurora-A condensation mediated by BuGZ aids its mitotic centrosome functions” (iScience, 2024)
